This test deals with T1, hSEMA4D ECD-His (His-tagged human SEMA4D protein extracellular domain, Met22-Arg734) (human, UniProt Q92854 22-734).
T1 construct: Expressed in CHO-S cells, purified on Ni column; also called protein immunogen; immunogen A; not shown: His tag of the pCP vector
T1 sequence: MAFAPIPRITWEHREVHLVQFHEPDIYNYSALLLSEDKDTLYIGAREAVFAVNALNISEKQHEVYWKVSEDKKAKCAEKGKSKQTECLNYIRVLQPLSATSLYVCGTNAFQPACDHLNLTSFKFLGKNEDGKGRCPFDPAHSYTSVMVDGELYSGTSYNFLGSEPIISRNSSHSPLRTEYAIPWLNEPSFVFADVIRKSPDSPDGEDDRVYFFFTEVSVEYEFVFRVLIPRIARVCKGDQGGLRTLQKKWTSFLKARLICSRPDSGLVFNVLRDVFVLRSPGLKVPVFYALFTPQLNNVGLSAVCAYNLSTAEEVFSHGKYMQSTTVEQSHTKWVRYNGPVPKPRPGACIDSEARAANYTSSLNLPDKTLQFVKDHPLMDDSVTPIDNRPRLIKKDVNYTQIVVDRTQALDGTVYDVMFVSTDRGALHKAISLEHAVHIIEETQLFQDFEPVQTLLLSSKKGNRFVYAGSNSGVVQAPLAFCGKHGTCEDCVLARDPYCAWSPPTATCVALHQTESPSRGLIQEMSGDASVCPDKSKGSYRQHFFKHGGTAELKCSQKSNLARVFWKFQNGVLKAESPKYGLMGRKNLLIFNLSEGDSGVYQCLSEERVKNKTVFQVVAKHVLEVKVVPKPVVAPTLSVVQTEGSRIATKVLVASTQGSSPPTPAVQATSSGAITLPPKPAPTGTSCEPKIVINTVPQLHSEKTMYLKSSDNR
Description: SPR (Biacore), antibody captured on anti-human Fc CM5 chip, hSEMA4D ECD-His 100 nM as analyte, 1:1 fit. As to the method:
The anti-human Fc IgG (purchased from Geneway) was coupled and immobilized on the surface of the CM5 chip (purchased from GE) by the amino coupling method, and FC1 was used as the reference channel. The coupling and immobilization process was as follows: the freshly prepared mixture of 50 mM N-hydroxysuccinimide (NHS) and 200 mM 1-(3-dimethylaminopropyl)-3-ethylcarbodiimide hydrochloride (EDC) with a molar ratio of […] was used to activate the chip. Then 10-50 μg/mL anti-human Fc IgG diluted in 10 mM sodium acetate buffer (pH 5.0) was injected. The remaining activated sites were blocked with 1M ethanolamine. Then, buffer containing HBS-EP was used to dilute the 2D5-b1-3D9 antibody prepared to 5 ug/ml and the antibodies were captured on the chip at a flow rate of 10 ul/min to obtain a response value of about 100-300RU. Then, the purified hSEMA4D ECD-His was diluted to 100 nM and let flow across the chip surface at a flow rate of 30 μL/min. At the end of each cycle, the chip surface was regenerated with 10 mM Glycine at pH 1.5. The kinetic rate constant needed to be subtracted from the blank control, and the data was fitted with the global fit analysis method 1:1 combined with the model (see the Biacore operation manual for operation). The dissociation equilibrium rate constant (KD) was calculated according to the following formula: KD=kd/ka, wherein Kd is the dissociation constant and Ka is the binding constant.
A general note: SPR reads the build-up and loss of mass on a sensor chip optically.

Numbering of substitutions follows the chain as printed. In names and notes the source's numbering stands.

B1: 2D5-b1 (antibody, V domains shown)
VH: QVTLRESGPALVKPTQTLTLTCTFSGFSLTTTGVAVTWIRQPPGKALEWLALIDWDDDKYYSTSLKTRLTISKDTSKNQVVLTMTNMDPVDTATYYCARIASGDSGGYFADWGQGTLVTVSS
VL: SYELTQPPSVSVSPGQTASITCSGDKLDDKYVYWYQQKPGQSPVLVIYRDNKRPSGIPERFSGSNSGNTATLTISGTQAMDEADYYCQAWESSSDQYVFGTGTKVTVL
notes: Framework back-mutated variant of 2D5; the parent 2D5 was human IgG4 (S228P)/lambda; captured by anti-human Fc in the SPR assay
With B1, binding was characterised by a dissociation constant (Kd) of 2.01 nM; the koff (in general, the rate constant with which the complex falls apart) is 0.00103 s⁻¹; the kon – broadly, the second-order rate constant of association – stood at 511000 M⁻¹ s⁻¹.

B2: 2D5-b1-3D9 (antibody, human IgG4, V domains shown)
VH: B1 VH
VL: B1 VL with R49M, P54K
notes: also called 2D5-b1-3D9 antibody
Take B2: the affinity, expressed as Kd, was 0.184 nM; the koff worked out at 0.000107 s⁻¹; the on-rate constant (kon) amounted to 583000 M⁻¹ s⁻¹.

Values taken from patent publication US20220073608A1 (JIANGSU HUAIYU PHARMACEUTICAL, published 2022).
